US20250027068

Target: pooled human IgG

B1: PRT-282 (protein)
chain: MVTSVWTKGVTPPAKFTQGEDVFHAPYVANQGWYDITKTFNGKDDLLCGAATAGNMLHWWFDQNKEKIEAYLKKHPDKQKIMFGDQELLDVRKVINTKGDQTNSELFNYFRDKAFPNLSARRIGVMPDLVLDMFINGYYLNVYKTQTTDVNRTYQEKDRRGGIFDAVFTRGDQSKLLTSRHDFKEKNLKEISDLIKKELTEGKALGLSHTYANVRLNHVINLWGADFDSNGNLKAIYVTDSDSNASIGMKKYFVGVNSSGKVAISAKEIKEDNIGAQVLGLFTLSTGQDSWNQTN
  Enzyme Activity Endpoint Assay (purified): Fab'2: 69 ng/µL
  Enzyme Activity Endpoint Assay (purified): Fc: 150 ng/µL
  Enzyme Activity Endpoint Assay (purified): IgG: 34 ng/µL
  Enzyme Activity Endpoint Assay (purified): scIgG: 413 ng/µL

B2: PRT-25 (protein)
chain: MANQEIRYSEVTPYHVTSVWTKGVTPPANFTQGEDVFHAPYVANQGWYDITKTFNGKDDLLCGAATAGNMLHWWFDQNKDQIERYLKEHPEKQKINFNGEQMFDVKEAIDTKDSQTDSKLFEYFKEKAFPYLSTKHLGVFPDHVIDMFINGYRLSLTNHGPTPVKEGSKDPRGGIFDAVFTRGDQSKLLTSRHDFKEKNLKEISDLIKQELTEGKALGLSHTYANVRINHVINLWGADFDSNGNLEAIYVTDSDSNASIGMKKYFVGVNSAGKVAISAKEIEEDNIGAQVLGLFTLSTGQDIWNQTN
  Enzyme Activity Endpoint Assay: Fab′2: 56 ng/µL
  Enzyme Activity Endpoint Assay: Fc: 123 ng/µL
  Enzyme Activity Endpoint Assay: IgG: 20 ng/µL
  Enzyme Activity Endpoint Assay: scIgG: 0 ng/µL

B3: PRT-26 (protein)
chain: MANQEIRYSEVTPYHVTSVWTKGVTPPANFTQGEDVFHAPYVANQGWYDITKTFNGKDDLLCGAATAGNMLHWWFDQNKDQIERYLKEHPEKQKINFNGEQMFDVKEAIDTKDSQTDSKLFEYFKEKAFPYLSTKHLGVFPDHVLDMFINGYRLSLTNHGPTPVKEGSKDPRGGIFDAVFTRGDQSKLLTSRHDFKEKTLKEISDLIKQELTEGKALGLSHTYANVRINHVINLWGADFDSEGNLKAIYVTDSDSNASIGMKKYFVGVNSAGKVAISAKEIKEDNIGAQVLGLFTLSTGQDIWNQTN
  Enzyme Activity Endpoint Assay: Fab′2: 40 ng/µL
  Enzyme Activity Endpoint Assay: Fc: 101 ng/µL
  Enzyme Activity Endpoint Assay: IgG: 11 ng/µL
  Enzyme Activity Endpoint Assay: scIgG: 14 ng/µL

B4: PRT-314 (protein)
chain: MQITSVWTKGVTPLTPEQFRENNEDVIHAPYLAHQGWYDITKAFDGKDNLLCGAATAGNMLHWWFDQNKTEIEAYLSKHPEKQKIIFGNQELFDLKAAIDTKDSQTNSQLFDYFRDKAFPNLSARQLGVMPDLVLDMFINGYYLNVGKTQSTDVNRPYQDKDKRGGIFDAVFTRGDQTTLLTARHDLKNKGLNDISTIIKQELTEGRALALSHTYANVSISHVINLWGADFNAEGELEAIYVTDSDANPSIGMKKYFVGRNAHGHVAISAKKIEGENIGAQVLGLFTLSSGKDQWQKLS
  Enzyme Activity Endpoint Assay (purified): Fab'2: 599 ng/µL
  Enzyme Activity Endpoint Assay (purified): Fc: 286 ng/µL
  Enzyme Activity Endpoint Assay (purified): IgG: 101 ng/µL
  Enzyme Activity Endpoint Assay (purified): scIgG: 174 ng/µL

B5: PRT-322 (protein)
chain: MTITSVWTKGVTPPTPEDFRENNEDVLHAPYVANQGWYDITKTFDGKDNLLCGAATAGNMLHWWFDQNKEEIERYLKKHPEKQKIIFNNQELFDVKAAIDTKDSQTNSKLFDYFRDKAFPNLSARQLGVMPDLVLDMFINGYYLNLGKTQSTDVNRPYQDKDKRGGIFDAVFTRGDQTTLLTARHDLKNKGLNEISDLIKQELTEGKALALSHTYANVRINHVINLWGADFDAEGNLIAIYVTDSDANASIGMKKYFVGRNANGKVAISAKKIEGDNIGAQVLGLFTLSTGQDQWQKLS
  Enzyme Activity Endpoint Assay (purified): Fab'2: 506 ng/µL
  Enzyme Activity Endpoint Assay (purified): Fc: 381 ng/µL
  Enzyme Activity Endpoint Assay (purified): IgG: 387 ng/µL
  Enzyme Activity Endpoint Assay (purified): scIgG: 0 ng/µL

B6: PRT-330 (protein)
chain: MTITSVWTKGVTPPTPEDFRENNEDVLHAPYVANQGWYDITKTFDGKDNLLCGAATAGNMLHWWFDQNKEEIERYLKKHPEKQKIIFGNQELFDVKAAIDTKDSQTNSKLFDYFRDKAFPGLSARQLGVFPDLVLDMFINGYYLNLGKTQSTDVNRPYQDKDKRGGIFDAVFTRGVQTTLLTARHDLKNKGLNEISDLIKQELTEGKALALSHTYANVRINHVINLWGADFDAEGNLIAIYVTDSDANASIGMKKYFVGRNANGKVAISAKKIEGDNIGAQVLGLFTLSTGQDQWQKLS
  Enzyme Activity Endpoint Assay (purified): Fab'2: 493 ng/µL
  Enzyme Activity Endpoint Assay (purified): Fc: 369 ng/µL
  Enzyme Activity Endpoint Assay (purified): IgG: 352 ng/µL
  Enzyme Activity Endpoint Assay (purified): scIgG: 0 ng/µL

B7: PRT-274 (protein)
chain: MVTSVWTKGVTPPTDFIYGEDVLHAPYKAGQGWYDITKTFNGKDNLLCGAATAGNMLHWWFDQNKEQIENYLKKHPEKQKIIFNNQELFDLKAAIDTKDSQLDSKLFDYFKEKAFPNLSTKHLGVFPDHVIDMFINGYRLSLLNHGPTPVKRGSKDKRGGIFDAVFTRGVQSKLLTNRHDLKNKTLKEISDLIKQELTEGKALGISHTYANVRINHVINLWGADFDAEGNLEAIYVTDSDTNPSIGMKKYFVGVNSSGKVAISAKEIEEDNIGAQVLGLFTLSTGQDIWNQTN
  Enzyme Activity Endpoint Assay (purified): Fab'2: 1040 ng/µL
  Enzyme Activity Endpoint Assay (purified): Fc: 425 ng/µL
  Enzyme Activity Endpoint Assay (purified): IgG: 0 ng/µL
  Enzyme Activity Endpoint Assay (purified): scIgG: 0 ng/µL

B8: PRT-290 (protein)
chain: MVTSVWTKGVTPPADFTQGEDVFHAPYVANQGWYDITKTFNGKDDLLCGAATAGNMLHWWFDQNKEYIEAYLKKHPEKQKIMFGDQELLDVRKAINTKGSQKNSELFNYFRDKAFPNLSARRLGVMPDLVLDMFINGYYLNVTKTQTTDVNRTYQEKDKRGGIFDAVFTRGDQSKLLTSRHDFKEKGLKEISDLIKQELTEGKALGLSHTYANVRIGHVINLWGADFDSDGNLKAIYVTDSDSNASIGMKKYFVGVNSSGKVAISAKEIKEDNIGAQVLGLFTLSTGQDIWNQTN
  Enzyme Activity Endpoint Assay (purified): Fab'2: 191 ng/µL
  Enzyme Activity Endpoint Assay (purified): Fc: 151 ng/µL
  Enzyme Activity Endpoint Assay (purified): IgG: 179 ng/µL
  Enzyme Activity Endpoint Assay (purified): scIgG: 0 ng/µL

B9: PRT-298 (protein)
chain: MVTSVWTKGVTPPTDFIKGEDVFHAPYKAGQGWYDITKTFNGKDDLLCGAATAGNMLHWWFDQNKEYIEAYLKKHPEKQKIMFGDQELLDVRKAINTKGSQKNSELFNYFRDKAFPNLSARRLGVMPDLVLDMFINGYYLNVTKTQTTDVNRTYQEKDKRGGIFDAVFTRGDQSKLLTSRHDFKEKGLKEISDLIKQELTEGKALGLSHTYANVGINHVINLWGADFDSDGNLKAIYVTDSDSNASIGMKKYFVGVNSSGKVAISAKEIKEDNIGAQVLGLFTLSTGQDIWNQTN
  Enzyme Activity Endpoint Assay (purified): Fab'2: 494 ng/µL
  Enzyme Activity Endpoint Assay (purified): Fc: 240 ng/µL
  Enzyme Activity Endpoint Assay (purified): IgG: 147 ng/µL
  Enzyme Activity Endpoint Assay (purified): scIgG: 35 ng/µL

B10: PRT-306 (protein)
chain: MVTSVWTKGVTPPTDFIKGEDVFHAPYDAGQGWYDITKEFNGKDDLLCGAATAGNMLHWWFDQNKEYIEAYLKKHPEKQKIMFGDQELLDVRKAINTKGSQKNSELFNYFRDKAFPNLSARRLGVMPDLVLDMFINGYYLNVTKTQTTDVNRTYQEKDKRGGIFDAVFTRGDQSKLLTSRHDFKEKGLKEISDLIKQELTEGKALGLSHTYANVRIGHVINLWGADFDSDGNLKAIYVTDSDSNASIGMKKYGVGVNSAGKVAISAKEIKEDNIGAQVLGLFTLSTGQDIWNQTN
  Enzyme Activity Endpoint Assay (purified): Fab'2: 467 ng/µL
  Enzyme Activity Endpoint Assay (purified): Fc: 336 ng/µL
  Enzyme Activity Endpoint Assay (purified): IgG: 341 ng/µL
  Enzyme Activity Endpoint Assay (purified): scIgG: 0 ng/µL
